# Data: article PMC2862297 (Journal of molecular biology, 2010)
# Target: the molecule itself
# Test: cryo-EM structure
protein,measurement,value
LTag108-627 deletion mutant of SV40 large T antigen (domain or fragment) EMPSSDDEATADSQHSTPPKKKRKVEDPKDFPSELLSFLSHAVFSNRTLACFAIYTTKEKAALLYKKIMEKYSVTFISRHNSYNHNILFFLTPHRHRVSAINNYAQKLCTFSFLICKGVNKEYLMYSALTRDPFSVIEESLPGGLKEHDFNPEEAEETKQVSWKLVTEYAMETKCDDVLLLLGMYLEFQYSFEMCLKCIKKEQPSHYKYHEKHYANAAIFADSKNQKTICQQAVDTVLAKKRVDSLQLTREQMLTNRFNDLLDRMDIMFGSTGSADIEEWMAGVAWLHCLLPKMDSVVYDFLKCMVYNIPKKRYWLFKGPIDSGKTTLAAALLELCGGKALNVNLPLDRLNFELGVAIDQFLVVFEDVKGTGGESRDLPSGQGINNLDNLRDYLDGSVKVNLEKKHLNKRTQIFPPGIVTMNEYSVPKTLQARFVKQIDFRPKDYLKHCLERSEFLLEKRIIQSGIALLLMLIWYRPVAEFAQSIQSRIVEWKERLDKEFSLSVYQKMKFNVAMGIGVLD,stoichiometry N,12
